Reference: the supplement of paper PMC9170038

Test system: MS2 coat protein
Assay: apparent KD of MS2 coat protein; designed switch direction (-1 OFF switch, 1 ON switch): -1; higher = weaker reporter binding
Procedure, shortened: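 Each step of the titration lasted 0.8–1.5 h at the lowest concentration and 10–20 min at the highest. The protein, SNAP-549-labelled MS2 coat protein, went from 0.7 or 1.5 nM doubling to 3 µM over RNA switches transcribed on Illumina chips by stalled E. coli RNA polymerase. Normalised cluster fluorescence was curve-fitted, and the per-design median over clusters is given as apparent KD.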

[1] = input ligand: microRNA oligo, concentration not stated
[2] = Eterna round: R95, input ligand: microRNA oligo, concentration not stated
[3] = Eterna round: R95, input ligand: FMN 200 uM
[4] = Eterna round: R95, input ligand: none

Sequence | apparent KD of MS2 coat protein (input ligand: FMN 200 uM) [nM] | apparent KD of MS2 coat protein (input ligand: none) [nM] | apparent KD of MS2 coat protein [2] [nM] | further results
GGCUGACAUGUAGGAUAUCUGCACGUGUAGUGCAGAGAAGGACAUGAGGAUCACCCAUGUAUAGCGACUUCGGUCGCAACAGCC [ENG1/2-A3] (Eterna round: R96, puzzle: Exclusion NG 1) | – | – | – | apparent KD of MS2 coat protein [1]: 35.9 nM
UCGAUGUAAGGAUAUCGUGCAAGUUUCAAAAGAGGCUUGUGCGAGAAGGUACAUGAGGAUCACCCAUGUAGGUU [Omei Ex4 B7] (Eterna round: R97, puzzle: Exclusion 4) | 207 | 75.6 | – | –
CUAUUACGAGGAUAUGAUUUAAAUAACAUGAGGAUCACCCAUGUUUUUACGUUAUUAUGUUCAGAAGGCGUAUUGU [JR_E5_Sub025] (puzzle: Exclusion 5) | – | – | 28 | –
UGAUCUAGCGGAGGAUAUACAUGAGGAUCACCCAUGUAUAGGCCAUGUGGUGACACGUGGAACAUGUAGAAGGCCGCUAGAUCU [JL ENG2 3.82] (Eterna round: R96, puzzle: Exclusion NG 2) | 287 | 77.6 | – | apparent KD of MS2 coat protein [1]: 73.3 nM
UUUUAACAUGAGGAUCACCCAUGUGAGGAUAUCGAAAUUUAUAUUAAUAUUAUUUAUUCGAGAAGGCACAUUUU [JMF 45] (puzzle: Exclusion 1) | – | – | 118 | –
GUAAUUAAUGUAGGAUAUGCAAGGCGAACCUAAGCAGAAGGAACAUGAGGAUCACCCAUGUAUGCGGUCUGCGUACAGAUCGCU [salish99_ExNG1_r4_004] (Eterna round: R96, puzzle: Exclusion NG 1) | 15.1 | 19.7 | – | apparent KD of MS2 coat protein [1]: 13.3 nM
CGUAAGCUAGGAUAUGCUUUGGGAAAGCAUUCCUUCGAUAAACUUGAGGAUCACCCAAGUAGAAGGAGCUUACC [salish99_ex2_r4_009] (Eterna round: R97, puzzle: Exclusion 2) | 11.7 | 11.5 | – | –
GAGAAGUGAGGAUAUGCGGUAAGGAUGAAAGGAAGGAAUGAGUAGAAGGCACAUGAGGAUCACCCAUGUAGAGU [JR_Exclu4_Sub081] (puzzle: Exclusion 4) | – | – | 18.5 | apparent KD of MS2 coat protein [3]: 19.5 nM; apparent KD of MS2 coat protein [4]: 21.1 nM
UUAGGCUGAAGAUCAAUUAAUUAACAUGAGGAUCACCCAUGUAAGGAUAUCAGCUCGAUUAGAGCUGAGAAGGUACAUGCAGCC [ExNG3/18-A1] (Eterna round: R96, puzzle: Exclusion NG 3) | – | – | – | apparent KD of MS2 coat protein [1]: 102 nM
AUAUACGUUGAGGAUAUGCGAAUAAGUAUAGUUGCAGAAGGCGACACAUGAGGAUCACCCAUGUUCAUGGACAC [LRO-Ex6-03] (puzzle: Exclusion 6) | – | – | 26.6 | –
AUGUGCACGCUGCGGUCCUACAUGAGGAUCACCCAUGUGGUCUGGUGGCGUGGGUCACCGGACUUGGCUCGUCUUGA [salish99_S_TOV1_R5_055] (Eterna round: R97, puzzle: Sensor, turn-off variant 1) | 56 | 51.9 | – | –
ACAUGAGGAUCACCCAUGUUUUUCGGGUACUCUUUUUACAGCAAGGAUAUGCAUUAUUUUUUUACGCAGAAGGUGCUUUACGUC [JR_ExcNG3_Sub066] (Eterna round: R96, puzzle: Exclusion NG 3) | – | – | – | apparent KD of MS2 coat protein [1]: 116 nM
GAGGAACAUGAGGAUCACCCAUGUAAGGAUAUGCAAAGAGAGGUAGUAGAAGGAGAAGGCAGAAGGUACAAGGA [JR_Exclu1_Sub074] (puzzle: Exclusion 1) | – | – | 36.1 | apparent KD of MS2 coat protein [3]: 47.7 nM; apparent KD of MS2 coat protein [4]: 50 nM
UGCAAUCUUAUGAUAUCUCACAUGAGGAUCACCCAUGUGCUCGUCUUAUGUUCUGUUUUGCUGUUGUCCGGCCGGCC [1st try] (Eterna round: R97, puzzle: Sensor, turn-off variant 1) | 27.5 | 31.3 | – | –
GACUUCUCUGAGGAUAUUGCAUCAUACGAUAAAUAAGAAGGCAGAACAUGAGGAUCACCCAUGUGGGUUUUAAG [Bingo-Bango-33] (Eterna round: R97, puzzle: Exclusion 6) | 137 | 104 | – | –
CCGGCUUAGGAGGAUAUAGGAGUCGAUAGACACCUAGAAGGCCUGACAUGAGGAUCACCCAUGUGUCCUACCGG [Fiskers Ex 6 - 98] (puzzle: Exclusion 6) | – | – | 14.2 | apparent KD of MS2 coat protein [3]: 31.1 nM; apparent KD of MS2 coat protein [4]: 16.5 nM
UGAAAGCUAGGAUAUACAUGAGGAUCACCCAUGUACCGGCUUGGCCCUGGUCCAAAGUGUAGAAGGAGCACGCC [Reedcedima] (puzzle: Exclusion 3) | – | – | 24.8 | –
GGCACACAUGAGGAUCACCCAUGUGAGGAUAUGUGGCGAUCGUCGAUAGACGAUAGCCACAGAAGGCACAUGCC [Mat - Exclusion 1 - Eli Mod - D9] (Eterna round: R97, puzzle: Exclusion 1) | 39.4 | 17.8 | – | –
AAGAAACAUGAGGAUCACCCAUGUGAGGAUAUGAGCAAGAAAAGAAAAGAAAGAAGAAUCAGAAGGCACAAAGG [salish99-ex1_r3_050] (Eterna round: R96, puzzle: Exclusion 1) | 68.5 | 37.4 | – | apparent KD of MS2 coat protein [1]: 31.7 nM
UUUUUGUGAGGAUAUCAGUAGUAAAUAAAUAAAAUAACUACUGAGAAGGCACAUGAGGAUCACCCAUGUUCUUU [Mat - Exclusion 4 - Mod of Salish - D67] (puzzle: Exclusion 4) | – | – | 17.1 | –
GCCGUCAAUGUGAGGAUAUGCCUAUGGAUACGUAGGCAGAAGGCACAUGAGGAUCACCCAUGUCCAAAGACGGC [JL-BMX4-4.31 Eli mod] (Eterna round: R97, puzzle: Brourd's mod of Exclusion 4) | 2170 | 200 | – | –
GAUUAACAUGAGGAUCACCCAUGUGAGGAUAUGGACUUGCCCACUUUCCCAUUAGAGUCUAGAAGGCGCAUCUG [1986#24] (Eterna round: R97, puzzle: Exclusion 1) | 37.2 | 37.9 | – | –
GAUCCACAUGAGGAUCACCCAUGUGAGGAUAUGUCCAUAUUCGGCAAAUCGGAUAUGGACAGAAGGCACACCGG [JR_Exclusion1_Sub012] (puzzle: Exclusion 1) | – | – | 104 | –
AGCCUCUAAGGAUAUACAUGAGGAUCACCCAUGUACUUAGAAGGGAAACCUUCUAUAUGUAGAAGGUAGAAGCA [Exclusion 3 S1] (Eterna round: R97, puzzle: Exclusion 3) | 16 | 12.7 | – | –
AGUCGGUCAGGAUAUGCAGACGUAGACAUGAGGAUCACCCAUGUAACGUGGGCCUGGUUUGUAGAAGGGACGAGCA [EX5 #84] (Eterna round: R97, puzzle: Exclusion 5) | 47.9 | 42.4 | – | –
GUGUAGUUAGGAUAUGCUGGAAUCUAGCGAAGCUAGGUUCCACAUGAGGAUCACCCAUGUAGAAGGGACUACAC [Dot plot directed A v10] (puzzle: Exclusion 2) | – | – | 168 | –
CUUAUGUGAGGAUAUGCCUGGCCGUGAGGCCAAAUUGAUUAGCAGAAGGCACAUGAGGAUCACCCAUGUGCGGG [jl-ex4-4.67 ViennaUCT mod] (Eterna round: R97, puzzle: Exclusion 4) | 340 | 479 | – | –
GUUAAACAUGAGGAUCACCCAUGUAAGGAUAUGCUGCGGUCGCGAUGAAGUGACUGCAGCAGAAGGUACAAUUG [Mat - Mod of JL D52] (puzzle: Exclusion 1) | – | – | 88.8 | –
